# Experimental data reported in patent US20230348603A1 (VERSEAU THERAPEUTICS, published 2023).
# T1: Cynomolgus Monkey VSIG4-L-His (cynomolgus monkey)
# T1 construct: ECD with His tag; also called cyVSIG4-L; cyno VSIG4-L-His
# T1 chain: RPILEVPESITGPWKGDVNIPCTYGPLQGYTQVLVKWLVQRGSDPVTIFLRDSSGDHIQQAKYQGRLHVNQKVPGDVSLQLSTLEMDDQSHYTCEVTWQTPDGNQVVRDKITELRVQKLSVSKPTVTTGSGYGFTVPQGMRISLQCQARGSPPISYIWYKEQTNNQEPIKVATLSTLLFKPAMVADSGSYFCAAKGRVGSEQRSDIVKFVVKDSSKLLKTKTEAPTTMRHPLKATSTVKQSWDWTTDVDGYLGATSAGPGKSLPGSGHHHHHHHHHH
# T2: Human VSIG4-L-His (human, UniProt Q9Y279 20-283)
# T2 construct: long isoform ECD with His tag; also called hVSIG4-L
# T2 sequence: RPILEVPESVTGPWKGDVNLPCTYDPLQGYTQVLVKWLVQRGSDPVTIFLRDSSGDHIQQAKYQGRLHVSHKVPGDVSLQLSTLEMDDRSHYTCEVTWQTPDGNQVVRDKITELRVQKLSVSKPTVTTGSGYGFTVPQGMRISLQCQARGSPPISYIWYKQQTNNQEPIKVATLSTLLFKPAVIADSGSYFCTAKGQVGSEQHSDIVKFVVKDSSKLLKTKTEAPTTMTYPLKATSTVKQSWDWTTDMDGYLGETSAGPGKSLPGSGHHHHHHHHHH
# T3: Mouse VSIG4-His (mouse)
# T3 construct: ECD with His tag; also called mVSIG4
# T3 chain: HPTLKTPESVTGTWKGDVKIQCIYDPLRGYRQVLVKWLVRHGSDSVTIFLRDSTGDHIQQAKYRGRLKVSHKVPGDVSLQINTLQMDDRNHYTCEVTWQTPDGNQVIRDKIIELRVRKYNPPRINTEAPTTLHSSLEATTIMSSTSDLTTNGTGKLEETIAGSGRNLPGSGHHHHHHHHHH
# T4: Human VSIG4-S-His (human, UniProt Q9Y279 20-283)
# T4 construct: short isoform ECD with His tag; also called hVSIG4-S; VISG4-S-His
# T4 sequence: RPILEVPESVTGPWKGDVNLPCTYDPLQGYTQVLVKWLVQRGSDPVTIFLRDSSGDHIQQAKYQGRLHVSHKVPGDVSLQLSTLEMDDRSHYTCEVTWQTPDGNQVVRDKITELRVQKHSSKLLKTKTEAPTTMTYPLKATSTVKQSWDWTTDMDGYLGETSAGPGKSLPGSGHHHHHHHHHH
# T5: Human VSIG4-L-CHO (human VSIG4 long isoform on CHO-K1 cells) (human, UniProt Q9Y279 20-399)
# T5 construct: also called hVSIG4-L (flow cytometry)
# T5 sequence: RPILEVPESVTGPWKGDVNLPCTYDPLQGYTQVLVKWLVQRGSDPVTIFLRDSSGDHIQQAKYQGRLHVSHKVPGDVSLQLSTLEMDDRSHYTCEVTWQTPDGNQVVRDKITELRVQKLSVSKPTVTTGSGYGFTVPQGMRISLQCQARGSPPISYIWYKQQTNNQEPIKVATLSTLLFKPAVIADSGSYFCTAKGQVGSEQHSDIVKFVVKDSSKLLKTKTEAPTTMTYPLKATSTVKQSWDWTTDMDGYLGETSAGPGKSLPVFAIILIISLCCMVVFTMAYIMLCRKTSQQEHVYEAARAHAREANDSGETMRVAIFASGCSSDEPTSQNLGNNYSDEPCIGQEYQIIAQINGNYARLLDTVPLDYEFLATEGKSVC
# Legend:
# Human VSIG4-L-Fc [1] = biological target: T6, Human VSIG4-L-Fc (human); experiment: ELISA, Fab P.E. 1:5 on coated antigen;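 further: mouse Fab P.E. samples in 1% skimmed milk PBS, bound to antigen-coated wells for 1 h at room temperature, read as absorbance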
# T6 construct: also called hVSIG4-L-Fc; hVSIG4-L
# T6 sequence (chain, as listed by the source limits assumed): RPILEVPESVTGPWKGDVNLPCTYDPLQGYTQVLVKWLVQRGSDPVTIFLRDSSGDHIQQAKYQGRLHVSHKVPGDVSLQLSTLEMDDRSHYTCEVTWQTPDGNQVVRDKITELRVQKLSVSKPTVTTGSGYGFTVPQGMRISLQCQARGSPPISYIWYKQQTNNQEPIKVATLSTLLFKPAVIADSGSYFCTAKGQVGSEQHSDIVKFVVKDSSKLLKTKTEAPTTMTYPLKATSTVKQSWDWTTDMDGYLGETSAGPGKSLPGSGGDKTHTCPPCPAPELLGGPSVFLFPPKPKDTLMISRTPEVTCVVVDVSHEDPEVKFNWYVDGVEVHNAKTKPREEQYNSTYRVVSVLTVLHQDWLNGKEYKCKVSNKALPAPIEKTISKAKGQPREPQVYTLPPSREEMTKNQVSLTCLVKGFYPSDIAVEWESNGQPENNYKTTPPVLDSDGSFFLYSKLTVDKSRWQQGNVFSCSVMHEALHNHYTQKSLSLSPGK
# Description: (§1) Coated microplates were blocked with dried skimmed milk at 4% in PBS. P.E. samples of the mouse unique Fab sequences were diluted 1:5 in assay buffer (1% dried skimmed milk in PBS), and 100 μl of diluted sample was added onto the coated wells and incubated for one hour at room temperature. […] Optical density (OD) at 450 nm was determined using a standard absorbance microplate reader.
# Human VSIG4-S-Fc [2] = biological target: T7, Human VSIG4-S-Fc (human); experiment: ELISA, Fab P.E. 1:5 on coated antigen;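 further: mouse Fab P.E. samples in 1% skimmed milk PBS, bound to antigen-coated wells for 1 h at room temperature, read as absorbance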
# T7 construct: short isoform ECD fused to human Fc1; also called hVSIG4-S
# Description: as §1
# [3] = biological target: T1, Cynomolgus Monkey VSIG4-L-His; experiment: ELISA, Fab P.E. 1:5 on coated antigen;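 further: mouse Fab P.E. samples in 1% skimmed milk PBS, bound to antigen-coated wells for 1 h at room temperature, read as absorbance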
# Description: as §1
# Human VSIG4-L-Fc [4] = biological target: T6, Human VSIG4-L-Fc; experiment: blocking ELISA, biotin-C3b on coated hVSIG4-L-Fc
# Description: Coated microplates were blocked with casein (Sigma-Aldrich, St. Louis, MO) at 1% in PBS. […] One hundred ill of the mixed sample was added onto the coated wells and incubated for one hour at room temperature. […] OD at 450 nm was determined using a standard absorbance microplate reader.
# Human VSIG4-L-His [5] = biological target: T2, Human VSIG4-L-His; experiment: SPR (Biacore T200), Fab P.E. 1:5 over immobilised antigen
# Human VSIG4-L-His [6] = biological target: T2, Human VSIG4-L-His; experiment: SPR (FJB)
# [7] = biological target: T1, Cynomolgus Monkey VSIG4-L-His; experiment: SPR (FJB)
# Human VSIG4-L-Fc [8] = biological target: T6, Human VSIG4-L-Fc; experiment: ligand blocking of C3b, IgG
# Human VSIG4-L-Fc [9] = biological target: T6, Human VSIG4-L-Fc; experiment: ligand blocking of iC3b, IgG
# Human VSIG4-L-Fc [10] = biological target: T6, Human VSIG4-L-Fc; experiment: ELISA, IgG 50 nM on coated antigen;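 further: Mouse-human chimeric IgG4 antibodies incubated 1 h on plate-coated VSIG4 proteins, bound IgG detected with HRP-labelled anti-human IgG, irrelevant antibody and protein as specificity controls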
# Description: (§2) The binding characteristics of selected antibodies identified in the phage display selections and reformatted as mouse-human chimeric IgG4 antibodies was assessed by ELISA for their ability to bind plate-bound human VSIG4-L, human VSIG4-S, cynomolgus monkey VSIG4, and mouse VSIG4 (Table 7). Antibodies were also assessed by ELISA for specificity to human VSIG4 compared to related VSIG4 B7 family members, including human B7-H1, B7-H2, B7-H3, B7-H4, B7-DC, B7-1, and B7-2 (Table 8).
# (§3) Coated microplates were blocked with dried skimmed milk at 4% in PBS. Coated proteins were then incubated with each purified antibody at a concentration of 50 nM for 1 h to allow the binding to the proteins. Binding detection was measured using a goat anti-huIgG monoclonal detection antibody, HRP conjugated (Jackson Immune Research, West Gove, PA). As a control for specificity, an irrelevant antibody and protein were used. OD at 450 nm was determined using a standard absorbance microplate reader.
# Human VSIG4-S-Fc [11] = biological target: T7, Human VSIG4-S-Fc; experiment: ELISA, IgG 50 nM on coated antigen;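 further: Mouse-human chimeric IgG4 antibodies incubated 1 h on plate-coated VSIG4 proteins, bound IgG detected with HRP-labelled anti-human IgG, irrelevant antibody and protein as specificity controls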
# Target sequence in this assay (chain, as listed by the source limits assumed): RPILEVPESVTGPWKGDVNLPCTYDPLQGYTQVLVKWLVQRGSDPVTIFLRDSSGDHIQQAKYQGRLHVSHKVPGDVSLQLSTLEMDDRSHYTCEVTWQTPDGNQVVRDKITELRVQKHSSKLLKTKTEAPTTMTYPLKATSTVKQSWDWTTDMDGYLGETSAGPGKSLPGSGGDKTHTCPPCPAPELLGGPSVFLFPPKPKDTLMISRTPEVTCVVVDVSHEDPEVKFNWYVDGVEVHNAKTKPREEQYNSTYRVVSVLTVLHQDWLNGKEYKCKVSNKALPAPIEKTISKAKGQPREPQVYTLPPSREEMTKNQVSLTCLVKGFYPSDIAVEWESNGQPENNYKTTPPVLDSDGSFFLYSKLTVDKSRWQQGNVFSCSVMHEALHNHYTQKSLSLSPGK
# Description: as §2, §3
# [12] = biological target: T1, Cynomolgus Monkey VSIG4-L-His; experiment: ELISA, IgG 50 nM on coated antigen;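 further: Mouse-human chimeric IgG4 antibodies incubated 1 h on plate-coated VSIG4 proteins, bound IgG detected with HRP-labelled anti-human IgG, irrelevant antibody and protein as specificity controls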
# Description: as §2, §3
# Mouse VSIG4-His = biological target: T3, Mouse VSIG4-His; experiment: ELISA, IgG 50 nM on coated antigen;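 further: Mouse-human chimeric IgG4 antibodies incubated 1 h on plate-coated VSIG4 proteins, bound IgG detected with HRP-labelled anti-human IgG, irrelevant antibody and protein as specificity controls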
# Description: as §2, §3
# Human VSIG4-L-His [13] = biological target: T2, Human VSIG4-L-His; experiment: BLI, IgG on AHC sensor, antigen 100 nM
# Description: (§4) The binding affinity of chimeric antibodies was determined by biolayer interferometry (BLI), using a ForteBio Octet® Red384 system. […] Biosensors were rehydrated prior to the assay in kinetics buffer for 10 minutes and then equilibrated in kinetics buffer for 60 seconds. Antibody was then immobilized for 300 seconds followed by a 120 second baseline wash in fresh kinetics buffer, 300 second analyte association, and 300 second dissociation in the same buffer wells as the baseline wash step. All assay steps occurred at 30° C. with an acquisition rate of 5.0 Hz
# (§5) The binding affinity of humanized antibodies and the parental chimeric antibodies was determined by biolayer interferometry (BLI), using a ForteBio Octet® Red384 system, as described above.
# [14] = biological target: T1, Cynomolgus Monkey VSIG4-L-His; experiment: BLI, IgG on AHC sensor, antigen 100 nM
# Description: as §4, §5
# Human VSIG4-L-His [15] = biological target: T2, Human VSIG4-L-His; experiment: BLI (Octet), IgG on AHC sensor, antigen 100 nM
# Human VSIG4-S-His = biological target: T4, Human VSIG4-S-His; experiment: BLI (Octet), IgG on AHC sensor, antigen 100 nM
# [16] = biological target: T1, Cynomolgus Monkey VSIG4-L-His; experiment: BLI (Octet), IgG on AHC sensor, antigen 100 nM
# [17] = biological target: T5, Human VSIG4-L-CHO (human VSIG4 long …); experiment: flow cytometry, CHO-K1 cells expressing hVSIG4-L
# Description: Three-fold serial dilution of each antibody starting at 200 nM were prepared in assay buffer (0.5% of heat inactivated Fetal bovine serum with 1:1000 Ethylenediaminetetraacetic acid in PBS). […] As a control for specificity, an irrelevant antibody was used. Binding detection was assessed using a goat anti-Human IgG (Fc specific), FITC conjugated polyclonal detection antibody (Sigma Aldrich, St. Louis, MO) and by acquisition of 10,000 cells per sample. Fluorescence was measured on an Attune™ NxT (Thermo Fisher Scientific, Waltham, MA).
# Human VSIG4-L-Fc [18] = biological target: T6, Human VSIG4-L-Fc; experiment: BLI binning on hVSIG4-L-Fc, competitor 12A08 first;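 further: normalized to binding of second antibody without first competitor antibody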
# Human VSIG4-L-Fc [19] = biological target: T6, Human VSIG4-L-Fc; experiment: BLI binning on hVSIG4-L-Fc, competitor 12A12 first;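 further: normalized to binding of second antibody without first competitor antibody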
# Description: (§6) Epitopic diversity of functional antibodies was further assessed by antibody cross-blocking experiments, performed on a ForteBio Octet® Red384 system. […] All assay steps occurred at 30° C. with an acquisition rate of 5.0 Hz.
# (§7) Binning results were calculated using ForteBio Data Analysis HT software. Antibody “a” and antibody “b” steps were defined, and the maximum binding calculation was averaged at the last 10% of the step duration. Once the matrix was generated, the antibody “b” binding signal in the absence of any antibody “a” was used to normalize the maximum binding of the competitor antibodies. Hierarchical clustering was set with a similarity metric of Pearson and Lingang Criteria by Mean, and the normalized maximum binding nm shift is reported in Table 9 below.
# Human VSIG4-L-Fc [20] = biological target: T6, Human VSIG4-L-Fc; experiment: BLI binning on hVSIG4-L-Fc, competitor 13H11 first;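 further: normalized to binding of second antibody without first competitor antibody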
# Human VSIG4-L-Fc [21] = biological target: T6, Human VSIG4-L-Fc; experiment: BLI binning on hVSIG4-L-Fc, competitor 14C05 first;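 further: normalized to binding of second antibody without first competitor antibody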
# Description: as §6, §7
# Human VSIG4-L-Fc [22] = biological target: T6, Human VSIG4-L-Fc; experiment: BLI binning on hVSIG4-L-Fc, competitor 14D12 first;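 further: normalized to binding of second antibody without first competitor antibody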
# Human VSIG4-L-Fc [23] = biological target: T6, Human VSIG4-L-Fc; experiment: BLI binning on hVSIG4-L-Fc, competitor 15A06 first;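 further: normalized to binding of second antibody without first competitor antibody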
# Human VSIG4-L-Fc [24] = biological target: T6, Human VSIG4-L-Fc; experiment: BLI binning on hVSIG4-L-Fc, competitor 15C03 first;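 further: normalized to binding of second antibody without first competitor antibody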
# Human VSIG4-L-Fc [25] = biological target: T6, Human VSIG4-L-Fc; experiment: BLI binning on hVSIG4-L-Fc, competitor 15C04 first;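 further: normalized to binding of second antibody without first competitor antibody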
# Description: as §6, §7
# Human VSIG4-L-Fc [26] = biological target: T6, Human VSIG4-L-Fc; experiment: BLI binning on hVSIG4-L-Fc, competitor 16E03 first;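 further: normalized to binding of second antibody without first competitor antibody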
# Human VSIG4-L-Fc [27] = biological target: T6, Human VSIG4-L-Fc; experiment: BLI binning on hVSIG4-L-Fc, competitor 16E10 first;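 further: normalized to binding of second antibody without first competitor antibody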
# Description: as §6, §7
# Human VSIG4-L-Fc [28] = biological target: T6, Human VSIG4-L-Fc; experiment: ligand competition ELISA (FJB), blocked ligand C3b
# Human VSIG4-L-Fc [29] = biological target: T6, Human VSIG4-L-Fc; experiment: ligand competition ELISA (FJB), blocked ligand iC3b
# [30] = biological target: T5, Human VSIG4-L-CHO (human VSIG4 long …); experiment: flow cytometry (FJB), 200 nM mAb, huVSIG4-L CHO-K1 cells
# [31] = biological target: T5, Human VSIG4-L-CHO (human VSIG4 long …); experiment: flow cytometry (FJB), 200 nM mAb, huVSIG4-L CHO-K1 over parental CHO-K1
binder,measurement,setting,value
"13H11 mouse Fab (periplasmic extract) (Fab, V domains shown, mouse Fab with C-terminal His6-c-myc tag) VH: QIQLVQSGPELKKPGETVKISCKASGYTFENFGMNWVKQAPGKGLKWMGWINTYTGEATYADDFKGRFAFSLETSASTAYLQINNLKNEDTATYFCARDGGFRHFDVWGAGTTVTVSS VL: ETTVTQSPASLSVATGEKVTIRCITSTDIDDDMNWYQQKPGEPPKLLISEGNTLRPGVPSRFSSSGYGTDFVFTIENMLSEDVADYYCLQSDNLPLTFGAGTKLELK",ELISA OD450,Human VSIG4-L-Fc [1],4.33 OD450
same,ELISA OD450,Human VSIG4-S-Fc [2],0.06 OD450
same,ELISA OD450,[3],4.34 OD450
same,Percent Blocking C3b,Human VSIG4-L-Fc [4],46.9%
same,koff,Human VSIG4-L-His [5],0.045 s⁻¹
"15C03 mouse Fab (periplasmic extract) (Fab, V domains shown, mouse Fab with C-terminal His6-c-myc tag) VH: EVKLLESGPGLVKPSQSLSLTCTVTGYSITSDYAWNWIRQFPGNKLEWMGYISYSGSTRYNPSLKSRISITRDTSNNQFFLQLNSVTTEDTATYYCARSGYAAMDYWGQGTSVTVSS VL: ENVLTQSPAIMSASPGEKVTMTCRASSSVSSSYLHWYQQKSGASPKLWIYSTSNLASGVPARFSGSGSGTSYSLTISSVEAEDAATYYCQQYSGYPLTFGSGTKLEIK",ELISA OD450,Human VSIG4-L-Fc [1],4.2 OD450
same,ELISA OD450,Human VSIG4-S-Fc [2],4.05 OD450
same,ELISA OD450,[3],0.05 OD450
same,Percent Blocking C3b,Human VSIG4-L-Fc [4],42.7%
same,koff,Human VSIG4-L-His [5],0.0076 s⁻¹
"14D12 mouse/human chimeric IgG4 (S228P) kappa (antibody, V domains shown) VH: QIQLVQSGPELKKPGETVKISCKASGYTFTNYGMNWVKQTPGKGLKWMGLINTYTGEPTYADDFKGRFAFSLETSASTAYLQINNLKNEDMATYFCARERIYGYLHYFDYWGQGTTLTVSS VL: DVVMTQTPASLAVSLGQRATISCKASQSVDYDGDSYMNWYQQKPGQPPKLLIYAASNLESGIPARFSGSGSGTDFTLNIHPVEEEDAATYYCQQSNEDPRTFGGGTKLEIKR",Kd,Human VSIG4-L-His [6],10.5 nM
same,Kd,[7],4.4 nM
same,Percent Blocking C3b,Human VSIG4-L-Fc [8],97%
same,Percent Blocking iC3b,Human VSIG4-L-Fc [9],98%
same,ELISA OD450,Human VSIG4-L-Fc [10],4.53 OD450
same,ELISA OD450,Human VSIG4-S-Fc [11],3.43 OD450
same,ELISA OD450,[12],4.52 OD450
same,ELISA OD450,Mouse VSIG4-His,0.05 OD450
same,KD relative to parental chimera,Human VSIG4-L-His [13],1 fold
same,KD relative to parental chimera,[14],1 fold
same,Kd,Human VSIG4-L-His [15],21.5 nM
same,Kd,Human VSIG4-S-His,28.7 nM
same,Kd,[16],16.1 nM
same,EC50,[17],2.8 nM
same,normalized maximum binding nm shift,Human VSIG4-L-Fc [18],0.73 normalized
same,normalized maximum binding nm shift,Human VSIG4-L-Fc [19],0.75 normalized
same,normalized maximum binding nm shift,Human VSIG4-L-Fc [20],0.69 normalized
same,normalized maximum binding nm shift,Human VSIG4-L-Fc [21],0.12 normalized
same,normalized maximum binding nm shift,Human VSIG4-L-Fc [22],0.08 normalized
same,normalized maximum binding nm shift,Human VSIG4-L-Fc [23],0.75 normalized
same,normalized maximum binding nm shift,Human VSIG4-L-Fc [24],0.59 normalized
same,normalized maximum binding nm shift,Human VSIG4-L-Fc [25],0.8 normalized
same,normalized maximum binding nm shift,Human VSIG4-L-Fc [26],0.68 normalized
same,normalized maximum binding nm shift,Human VSIG4-L-Fc [27],0.93 normalized
same,IC50,Human VSIG4-L-Fc [28],0.8 nM
same,IC50,Human VSIG4-L-Fc [29],0.6 nM
same,Binding (200 nM) MFI,[30],36400 MFI
same,Binding (200 nM) Fold-Over-Parental,[31],112 fold
